Key:
Test in all cases: purified protein
purified protein [1] = substrate: COc1ccccc1O; conditions: pH 4, 45 °C, error = 95% confidence limits
purified protein [2] = substrate: CCn1c(=NN=c2sc3cc(S(=O)(=O)O)ccc3n2CC)sc2cc(S(=O)(=O)O)ccc21; type: biochemical, Irpex lacteus; conditions: error = 95% confidence limits
purified protein [3] = substrate: COc1ccc(CO)cc1OC; type: biochemical, Irpex lacteus; conditions: 0.1 mM H2O2, 0.1 M sodium tartrate, pH 3.5, 45 °C, error = 95% confidence limits
purified protein [4] = substrate: COc1cccc(OC)c1O; type: biochemical, Irpex lacteus; conditions: error = 95% confidence limits
purified protein [5] = substrate: Nc1c(N=Nc2ccc(S(=O)(=O)CCOS(=O)(=O)O)cc2)c(S(=O)(=O)O)cc2cc(S(=O)(=O)O)c(N=Nc3ccc(S(=O)(=O)CCOS(=O)(=O)O)cc3)c(O)c12; type: biochemical, Irpex lacteus; conditions: error = 95% confidence limits
purified protein [6] = substrate: Nc1c(S(=O)(=O)O)cc(Nc2cccc(S(=O)(=O)CCOS(=O)(=O)O)c2)c2c1C(=O)c1ccccc1C2=O; type: biochemical, Irpex lacteus; conditions: error = 95% confidence limits
[7] = 0.1 mM H2O2, 0.1 M sodium tartrate
[8] = 0.1 mM H2O2, 0.1 M sodium tartrate, pH 3.5, 35 °C
[9] = 0.1 mM H2O2, 0.1 M sodium tartrate, pH 4, 35 °C
[10] = 0.1 mM H2O2, 0.1 M sodium tartrate, pH 4.5, 35 °C
[11] = 0.1 mM H2O2, 1 mM Mn2+, 0.1 M sodium tartrate
[12] = 0.1 mM H2O2, 1 mM Mn2+, 0.1 M sodium tartrate, pH 3.5, 45 °C
[13] = 0.1 mM H2O2, 1 mM Mn2+, 0.1 M sodium tartrate, pH 4.5, 55 °C
[14] = 0.1 mM H2O2, 1 mM Mn2+, 0.1 M sodium tartrate, pH 3, 35 °C

B1: Il-DyP4 (Irpex lacteus) (protein)
chain: SAGNDSLPFENIQGDILVGMKKDKEKFVFFHINNATAFKSVLKTYAPANITSVATIIGPVANQPLAFVNLAFSHAGFGALNVTDDLQDTAFSDGQFKDSPNLGDDTSTWEEAFKGTNVDGVFLIGSNDESITAQYRDDLNAKFGDAWTIVYDLDSAARPGNEKGHEHFGYLDGISNPTIPGFGTPHPGQAVVDPGIIFTGRSKDPVMNRPSWALDGSFLVFRKLKQLVPEFNKYVLDNALQNQAGNLTVEEGAELLGSRMFGRWKSGAPIDLSPDFDDPALGNDIERNNNFNYSHPGSDLATDQTRCPFTAHIRKTNPRDLEGQGLFGDTFHAIRAGTPYGPEVTDYEASSNTTTIDRGLAFVEYQSVIGNGFRFQQQAWANNPRFPFSKGPSIQLGLDPVIGQGSPRETFGLDPRNASESFTVPQVIISNGGEYFFSPSITAIVEKFAA
notes: 502 aa given, 52-aa signal peptide stated
Km (purified protein [1]; [7]): 24 ± 7.5 µM
kcat (purified protein [1]; [7]): 413 ± 34 s⁻¹
kcat/Km (purified protein [1]; [7]): (1.7 ± 0.1) × 10^7 s^-1M^-1
Km (purified protein [2]; [8]): 62 ± 11 µM
kcat (purified protein [2]; [8]): 8356 ± 747 s⁻¹
kcat/Km (purified protein [2]; [8]): (1.3 ± 0.1) × 10^8 s^-1M^-1
Km (purified protein [3]): (2.1 ± 0.98) × 10^4 μM
kcat (purified protein [3]): 108 ± 47 s⁻¹
kcat/Km (purified protein [3]): (5.2 ± 2.3) × 10^3 s^-1M^-1
Km (purified protein [4]; [9]): 58 ± 3 µM
kcat (purified protein [4]; [9]): 4896 ± 131 s⁻¹
kcat/Km (purified protein [4]; [9]): (8.4 ± 0.2) × 10^7 s^-1M^-1
Km (purified protein [5]; [9]): 159 ± 61 µM
kcat (purified protein [5]; [9]): 267 ± 96 s⁻¹
kcat/Km (purified protein [5]; [9]): (1.7 ± 0.6) × 10^6 s^-1M^-1
Km (purified protein [6]; [10]): 133 ± 34 µM
kcat (purified protein [6]; [10]): 5345 ± 921 s⁻¹
kcat/Km (purified protein [6]; [10]): (4.0 ± 0.7) × 10^7 s^-1M^-1

B2: Il-MnP6 (Irpex lacteus) (protein)
chain: TKRVACPDGKNTATNAACCALFAIRDDIQENLFDGGQCGEEVHESFRLTFHDAIGIGSNGGGGADGSIAVFEAIETAFHANNGVDEIIDEQKPFIARHNITPGDFIQFAGAVGVSNCPGAPRLDFFLGRPNPVAPAPDKTVPEPFDSVTSILARFKDAGNFSPEEVVALLGSHTIAAADHVDPTIPGTPFDSTPEVFDTQVFLEVQLRGTLFPGTAGNQGEVQSPLRGEIRLQSDHDLARDQRTACEWQSFVNNQAKLQRNFKAAFKKLSILGHDERRLIDCSEVIPEPPNVKVKPATFPAGLSNKDVEQACRATPFPTLPTDPGPSTSVAPVPPS
notes: 359 aa printed, predicted 23-aa signal peptide; short-type MnP
Km (purified protein [1]; [11]): 2.6 ± 0.6 µM
kcat (purified protein [1]; [11]): 184 ± 7 s⁻¹
kcat/Km (purified protein [1]; [11]): (7.1 ± 0.3) × 10^7 s^-1M^-1
Km (purified protein [2]; [12]): 83 ± 6.5 µM
kcat (purified protein [2]; [12]): 245 ± 7 s⁻¹
kcat/Km (purified protein [2]; [12]): (3.0 ± 0.09) × 10^6 s^-1M^-1
Km (purified protein [4]; [13]): 53 ± 8.6 µM
kcat (purified protein [4]; [13]): 989 ± 100 s⁻¹
kcat/Km (purified protein [4]; [13]): (1.9 ± 0.2) × 10^7 s^-1M^-1
Km (purified protein [5]; [14]): 4.4 ± 0.7 µM
kcat (purified protein [5]; [14]): 0.06 ± 0.003 s⁻¹
kcat/Km (purified protein [5]; [14]): (1.5 ± 0.07) × 10^4 s^-1M^-1
Km (purified protein [6]; [14]): 81 ± 39.5 µM
kcat (purified protein [6]; [14]): 7.3 ± 2.6 s⁻¹
kcat/Km (purified protein [6]; [14]): (9.0 ± 3.2) × 10^4 s^-1M^-1
